Assay results as given in the DeepSol protein solubility set.

experiment: soluble on expression in E. coli; label from the status in PepcDB or PDB records

Sequence	soluble on expression in E. coli
MGSDKIHHHHHHMLSVSSLDGEWNITEVDGQKISTERMPFIGFDVAQKRIYGNSGCNRMMGSFEADSLKPGTLKFGQIGSTRMMCPDMKTEQMVLGALDKVTSFQTVSDKPDVITLCNQDGQPLMTLEKKAAPEVSLSDLSGEWVIELVNGKKIVGTAEVTPFIGFNLDESRIYGNVGCNTINGALMQEDGKPNSLRFDNVATTMMMCPDMETETIVLNALNETKSFSMKDDKVYLLGENGNELLVLKKQ	not soluble
MGSDKIHHHHHHMLTTCKSVLKLPYLEKIKVVAGEKGLNRIITWVQVVEYPEYSKWLKGGELILISGIAIKNNINSLVNFIRDINSRSLSGIVISIGPYIKEIPKEVIEIGNQLDFPIFEIPFEVKFIDVSQSICKAIFANKVNQESMENFMKDIIFRDFTFSEDILSRAVAYGYNPKTKYISFVVELHNEKDMLECDLKTKQYIEQIVIEVLGEWNKRSIHIMQYNSIILMLPKNEKRTIKNIAMNIIEEIISKAKNTSVNIGVGGEFSELRDFKISVSEAHRCLKVLKLNNDNNTVISYDELGIYKLFFQMDNLEEMKKFYLDVLKKLIDYDSKNTTELMNTLEMYIKESTNINRTAEKLFIHRNTLKYRIRRIEEITKCSLKDVNVLFNFDTALKIKKFLTMENAV	not soluble
MGSDKIHHHHHHMLTTDNQLIRLSQGQLNLLETCPRKFQHTHLEQLNSPLDPDHTDKLTLGSRFHLLMQQQEMGLPIDSFLQADTQLQNWMSGFANAAPEILTPATDRQTFRESEHYRTLQFQDYLLTVIYDLLIADHQQAQIFDWKTYPKPPDKRKLAQNWQTRLYMYVLAETSQYSPENISMTYWFVQSQGKPQNIQFTYSHNLHTQTAKKLHQLLDQLTKWLNNYQQGTLFPQVPVNSKACDYCQFAKKCDRLLPTVGHKLNSSESNSLEITAQAINKSFPALDAIEEVSI	not soluble
MGSDKIHHHHHHMLVVTTACNLDCAYCYEGGGNGQGEMMDLDTALRALDLVAASNQPFHVQLTGGEPLLAGELVFRILEYIRNNNLPATTAIQTNGVLLDHQTARRLHSFGTAVGVSVDGLPAIQEQLRGQGAATWKALAMLDSERVPFSVTTVLSSRNTRDLSTLGMALHSMPAASAIGLDLLVQKGSAAAKIGVQPPDAVTIRSGVTRLLATLDVLNAQRSRPLILRERQTVLKALGRDEARPYCQACTGSSLAVTPRGELYPCTQTLGDARFHLGTLDHPRLSGTALPDGRLPKREECAGCGLQGRCPGDCPSRLHYNGADGAGLVCALYRTICDYCLYKGEIPS	not soluble
MGSDKIHHHHHHMLWLLMTTGKCNLKCDYCGGSFPDNVVPYGIKYDINSVKKLIEKDKDSTIIFYGGEPLLNYKFVMAVLDNVRAKRYGIQTNGIAVRLLPERYWRKINVALLSIDGREEITNKHRGKGIYKAVLRSAKYLKDLGVETIARMTVTQDTDIFTDVMHLIDLGLFDKVHWQLDVIWSEEWDFKSWSFSYLNGIKRLTDYFLSELRKGRVVKIIPILGVISAHFFEGYKGSPCGAGYSSVTVTPDGRILSCPIAVREKWAELGNVNLGYRLLEDPLPDDCKRCEFKRYCGGRCLYAQKERYWGEEGFKAVDEVNKEYLRTVLSIIPEIERLIRDGYIRLSDLYYNPILDSTEIIP	not soluble
MGSDKIHHHHHHMLWSMTDGATPATPPTAAPEERFPHVNPLVYRFVVDVTFLPVLLTGMHIDVHGREHVPPPGTPLVVAANHQSALDPFLIARALPPGRYLQFMAKRELFVPVIGDIIRAGGSFPVDRESNDVGAIRTSLRILKAGGTVGIFPQGTRGGQELHGGAALIAARGRAPILPAGISHDGKRWVVRFGEPLPARGGIKANTEELGRRLQVLAQPVGRHL	not soluble
MGSDKIHHHHHHMMETTQFNPIQLKRARVARGKTMKVLAEETGISRQMISNYELGKTVPSGLNLVKLISVLNFPKNYFSATQASNLHGATFFRSQNAATKRARDMQSVRLSFQNDIYTTLSQYVNFPKVDLPESLDMDVDDITNDNIKFMAMRVRDQWDLGTKTPIENLIQTAEIHGIVVVKTNMTNDKLDAVSEIIEGRPFIMLTDNGESAVRRRFNVAHELGHIVLHAGIESIHDFTSQQLKNTIERQANLFASTFLMPDDAFVESLLSTSLDYYIKLKQYWKASIQSMIYKTYQLGLINDDQKLYLNKKISWNKWRKIEPLDNILEIENPTLFGKVFNMIIDHKVVSQADLLSELKLPFDELECSLGIQLATQKNISEPKLRLL	not soluble
MGSDKIHHHHHHMMGGFTVLIEMHCHTSEYSSCSGVAAVNLVRQVAAKNLQGIVLTDHHHLWEASELADVRRRAEVPDHFVILAGQEVTTPELGDVLVFGADATIERGTPLAEIRRRYPAAALVWAHPYRRGKRPTPEQLCHPLLDGVEIFNSNHTVRENSQGLQDWHRDRFTAIAGTDTHGENYAGLYPTQFDHAVKTIADLAAEIRHGRCRPFLKEIPRSGANSQVIEVTIGTKGADEVRERLIIKEIGTRHKWRSAERAFRIMGEIVGHGFDEGKFRVPRPIDEDEASMTLIEQGLRGKSLFDKLLTAEPEDGRAYLSLAAGWLARLHGCRLRITPRDEFLVREDERLARYLERFTAIGHRHTRKVQEILAAVAAEERRVVAEGSAYMVQGHGDFHPKNVFVGQDVMENRSTLFVAAIDFESSYVLPRAFDVGCFLAQFRNQFYHYGEIVNAYPEELFLEAYLRDSDQVEPDFLRQVELFRARTNMSIAAYLVKVGLGDSEDLWRVIVEAERSISNLSTGPAG	not soluble
MGSDKIHHHHHHMMKISFIIATLNSGGAERALVTLANALCKEHEVSIIKFHAGESFYKLENEVKVTSLEQFRFDTLYHKIASRFKKFFALRKALKESKSDVFISFLDTTNIACIAAKIGLKTPLIISEHSNEAYLKPKIWRFLRRVSYPFCDALSVLGSSDKVYYERFVKRVKLLLNPCHFSDEISFDSSFEKENLVLFIGRLDHNKNPVMFLKAIAHLDKNLQENYKFVIAGDGQLRQELEYKVKSLGIKVDFLGRVENVKALYEKAKVLCLCSFVEGLPTVLIESLYFEVCRISSSYYNGAKDLIKDNHDGLLVGCDDEIALAKKLELVLNDENFRKELVNNAKQRCKDFEISHIKEEWLKLIAEVKNA	not soluble
MGSDKIHHHHHHMMKQIIAMAGGGFSMEPDNLSLDQYILNQSKREQHRICFLPTASGDSQNYIQRFYHAFQTLDCVPSHLSLFKPPSSDLVSFVMEMDVIYVGGGNTRNLLVLWKEWGLDHILREAWKNGVVVAGISAGAICWFEEGVTDSAGPLTSLKSLGFLQGSFCPHYDGEKDRRPAYHQLISNKFLCSGYAADDGAALHFINDQLFQTVSSRSGAKAYRVMMAEHEIAEIPLPVKYVRVKLAEYYLYSSFFQIDFMIR	not soluble
MGSDKIHHHHHHMMKSIILIVLDGLGDRPGSDLQNRTPLQAAFRPNLNWLASHGINGIMHPISPGIRCGSDTSHMSLLGYDPKVYYPGRGPFEALGLGMDIRPGDLAFRANFATNRDGVIVDRRAGRENKGNEELADAISLDMGEYSFRVKSGVEHRAALVVSGPDLSDMIGDSDPHREGLPPEKIRPTDPSGDRTAEVMNAYLEEARRILSDHRVNKERVKNGRLPGNELLVRSAGKVPAIPSFTEKNRMKGACVVGSPWLKGLCRLLRMDVFDVPGATGTVGSNYRGKIEKAVDLTSSHDFVLVNIKATDVAGHDGNYPLKRDVIEDIDRAMEPLKSIGDHAVICVTGDHSTPCSFKDHSGDPVPIVFYTDGVMNDGVHLFDELSSASGSLRITSYNVMDILMQLAGRSDKFGS	not soluble
MGSDKIHHHHHHMMLGNIAYMNPWWEGKEDYHVKLWKNQKIRWEPNWVREISLKPFSLNFILGPRQVGKTTGIKLLIQKILENNPPESVLYLNLEVLPTYRDLLEIIREFQELKKEERIKTGYIFLDEASSLEGWWRGIKPLIDAGLLENDVVTVTGSSSLRVRRDIEMFPGRRGEGKTLEIMPLSFPEYIKVMGLKKHRLESTKVLKLFDKYIQTGGFPGSINGFPMEDLLGAYIGEFVRFGKSLEIAKETLAALIRSAPSATSFRALAEMTSGYSYKVIQDYIEFFRDIYILGIAYLKEDNQVMYRREKKFFFRDPLLARLFSLWSGVEVREDALYEWIVQEHVFRRFGEVYYFRNSYEVDVIADNLKIEVKAGKAHRKYPRGVLVLEKDDIPFFLIEYYWTGLK	not soluble
MGSDKIHHHHHHMMNKPAPRELEVIRSTYITPHMLRITLGGAGLAGFPADQESAYIKLLFPQAGERPLMRTYTIRQQRDDEIDVDFVLHDTDGPASSWAKTAQVGELIQIGGPGLKKLINFEADWFLLAGDMTALPAISVNLAKLPNNAVGYAVIEVLSEADIQPLVHPEHVELHWVINPEADPEGRPLVERIAQLPWLAGEPAVWIACEFNSMRALRRHFKQAHALPKSHFYTSSYWKIGCNEGEHKLVKQEDEQLENGASV	not soluble
MGSDKIHHHHHHMMSQEQNDLITRVGPGTPCGKLMRAYWQPAALVDELEGERPIKPVRLLGEDLVLFKDETGRYGLIDRDCPHRGADLAFGRLENGGLRCAFHGWLFDVDGKCIDTPAEPAGSPLCKNIKQRAFPVVAKGGILWAYLGAGEPPAFPEIDCFIAPDTHVFAFKGLMECNWLQALEVGIDPAHASFLHRFFEDEDTSQAYGKQFRGASAGSDLPMTKVLREYDRPIINVEHTEYGLRLIALREIDDERTHVRVTNQLFPHGFVIPMSTEMTITQWHVPVDDTHCYWYAIFTSYAAPVDKVKMRDQRLELYELPNYKSRRNKTNDYGFDPHEQATATYTGMGLDINVHDQWAVESMGAIQDRTREHLGQSDKAIIQYRRLLRQEIEKAASGGKPLLALDEAAARAIQGPATMDGIGPSRGWETYWMEVDVKRRRGAPWAVPVPSEIAAKVPHLTAAE	not soluble
MGSDKIHHHHHHMMYTNDNRIVMTLDAGGTNFVFSAIQGGKEIADPVVLPACADCLDKCLGNLVEGFKAIQAGLPEAPVAISFAFPGPADYQAGIIGDLPNFPSFRGGVALGPFLEDIFGIPVFINNDGSLFAYGEALTGVLPEINRRLREAGSTKRYKNLLGVTLGTGFGAGVVIDGELLRGDNAAGGYVWCLRNKKYPEYIVEESVSIRAVMRVYAERSGDAGARTPKEIFEIAEGIRPGNREAAIAAFEELGEMAGDALASAITLIDGLIVIGGGLSGASKYILPVLLKEMNAQTGMMDGARFGRLQKEVYDLDEEKSFAGFARGEAVEVLVPGTNRKVGYDPCKRIGVTFSKQGANRSIAMGAYVFALNHLSK	not soluble
MGSDKIHHHHHHMNAALWISKTGLDAQTKDIAVISNNLANASTIGFKKSRAVFEDLLYQNINQPGGRTAQDTEAPSGLMLGAGTKVVATQKIHTQGDMITSDNALDLMIQGEGFFEIQMPDGSSAYSRNGQFTMDDEGNMVTPGAGYMIQPQVTIPEDALSIIVSQDGEVSVTLQGQPDPAVVGQINLINFVNPTGLQPIGQNLYTETAVSGAPQEGVPGLEGYGMLVQGALETSNVNTTEELVNLIESQRVYEMNSKVISAVDEMLSYINQQM	not soluble
MGSDKIHHHHHHMNARTLDPTERLIEKEPYYEPVGEEIALFEAAYRQRIPVLLKGPTGCGKTRFMEHMAWRLQRPLITVSCHDDLTASDLVGRYLVKGGETVWVDGPLTRAVRCGGICYLDEIVEARKDTMVVIHPLADDRRTLAMEKLGQMLEAPAEFCLAISYNPGYQSVLKDLKQSTRQRFVALEFDYPSAALEQRIVATESGVSDAVADKLVRFAQMTRNLKGSGLEEGASTRLLVHAGKLISDGISPVTACKSAVAQAVTDDADMLKAIQELSSSVF	not soluble
